Data published in patent US20160340743.

Biological target: GSK-3 fusion protein (kinase substrate, Nonradioactive AKT Kinase Assay Kit, Cell signaling 9840)

B1: BCAM-AKT2-FLAG (cloned from patient S4, expressed in OVCAR8 cells) (protein)
chain: EVRLSVPPLVEVMRGKSVILDYTPTGTHDHYMLEWFLTDRSGARPRLASAEMQGSELQVTMHDTRGRSPPYQLDSQGRLVLAEAQVGDERDYVCVVRAGAAGTAEATARLNVFAKPEATEVSPNKGTLSVMEDSAQEIATCNSRNGNPAPKITWYRNGQRLEVPVEMNPEGYMTSRTVREASGLLSLTSTLYLRLRKDDRDASFHCAAHYSLPEGRHGRLDSPTFHLTLHYPTEHVQFWVGSPSTPAGWVREGDTVQLLCRGDGSPSPEYTLFRLQDEQEEVLNVNLEGYLTLEGVTRGQSGTYGCRVEDYDAADDVQLSKTLELRVAYLDPLELNEGKVLSLPLNSSAVVNCSVHGLPTPALRWTKDSTPLGDGPMLSLSSITFDSNGTYVCEASLPTVPVLSRTQNFTLLVQGSPGLKTAEIEPKADGSWREGDEVTLICSARGHPDPKLSWSQLGGSPAEPIPGRQGWVSSSLTLKVTSALSRDGISCEASNPHGNKRHVFHFGTVSPQTSQAGVAVMAVAVSVGLLLLVVAVFYCVRRKGGPCCRQRREKGAPEEWMRAIQMVANSLKQRAPGEDPMDYKCGSPSDSSTTEEMEVAVSKARAKVTMNDFDYLKLLGKGTFGKVILVREKATGRYYAMKILRKEVIIAKDEVAHTVTESRVLQNTRHPFLTALKYAFQTHDRLCFVMEYANGGELFFHLSRERVFTEERARFYGAEIVSALEYLHSRDVVYRDIKLENLMLDKDGHIKITDFGLCKEGISDGATMKTFCGTPEYLAPEVLEDNDYGRAVDWWGLGVVMYEMMCGRLPFYNQDHERLFELILMEEIRFPRTLSPEAKSLLAGLLKKDPKQRLGGGPSDAKEVMEHRFFLSINWQDVVQKKLLPPFKPQVTSEVDTRYFDDEFTAQSITITPPDRYDSLGLLELDQRTHFPQFSYSASIRE
phosphorylation of GSK-3 (in vitro kinase assay, western blot with anti-phospho-GSK-3): incubation with immunoprecipitated BCAM-AKT2 led to efficient phosphorylation of GSK-3
